Measured values as given in paper PMC10023157, “Peptides that Mimic RS repeats modulate phase separation of SRSF1, revealing a reliance on combined stacking and electrostatic interactions”.

Columns and labels:
Assay in all cases: not stated; Fluorescence polarization: 100 mM ER4 peptide, 400 mM Arg/Glu, pH 6.5; temperature not stated; three technical replicates
Conditions in all cases: protein: recombinant; tags: SUMO (pSMT3) His tag removed by Ulp1
SRSF1 NoC = SRSF1 NoC (human, UniProt Q07955 1-248, C16S;C148S)
Sequence of SRSF1 NoC (Q07955 whole entry C16S/C148S): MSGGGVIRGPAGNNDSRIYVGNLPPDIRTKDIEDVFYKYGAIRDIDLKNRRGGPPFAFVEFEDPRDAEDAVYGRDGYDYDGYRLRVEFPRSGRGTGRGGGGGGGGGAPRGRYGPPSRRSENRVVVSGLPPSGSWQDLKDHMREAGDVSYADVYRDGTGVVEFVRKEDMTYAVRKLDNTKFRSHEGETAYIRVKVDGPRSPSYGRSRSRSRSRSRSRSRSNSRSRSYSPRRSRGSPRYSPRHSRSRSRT

SRSF1 T248C = SRSF1 T248C (human, UniProt Q07955 1-248, C16S;C148S;T248C)
Sequence of SRSF1 T248C (Q07955 whole entry C16S/C148S/T248C): as the sequence (Q07955 whole entry C16S/C148S) above, with T248C counted along it

SRSF1 N220C = SRSF1 N220C (human, UniProt Q07955 1-248, C16S;C148S;N220C)
Sequence of SRSF1 N220C (Q07955 whole entry C16S/C148S/N220C): as the sequence (Q07955 whole entry C16S/C148S) above, with N220C counted along it

Measured: binding result

UCAGAGGA (ssRNA) [UCAGAGGA (SRSF1 cognate RNA)]
binds: all assays above
